The values below are quoted from earlier work in publication PMC9252436.

The series addresses CD47 (Homo sapiens) (UniProt Q08722).
Sequence of UniProt Q08722 (Q08722 19-323): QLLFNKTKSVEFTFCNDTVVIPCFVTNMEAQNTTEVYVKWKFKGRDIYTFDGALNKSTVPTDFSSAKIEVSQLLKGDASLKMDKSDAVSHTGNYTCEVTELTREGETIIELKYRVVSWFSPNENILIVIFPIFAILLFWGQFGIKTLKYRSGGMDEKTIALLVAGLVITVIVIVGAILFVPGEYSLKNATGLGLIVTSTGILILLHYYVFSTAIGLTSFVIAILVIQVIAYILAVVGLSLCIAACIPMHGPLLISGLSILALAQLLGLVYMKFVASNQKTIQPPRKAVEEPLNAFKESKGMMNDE

Take SIRPα (from UniProt P78324): the Kd is 0.016 µM.

For orientation: Kd means the free concentration of one partner at which half of the binding sites on the other are occupied at equilibrium, for simple one-to-one binding.
